Data published in patent publication US20230002481A1 (Chugai, published 2023).

T1: recombinant human C1r2s2 tetramer (human, UniProt P09871 16-688; P00736 18-705)
T1 construct: Heterotetramer of two C1r and two C1s chains, co-expressed in FreeStyle293-F cells; also called human C1r2s2s
T1 chain 1: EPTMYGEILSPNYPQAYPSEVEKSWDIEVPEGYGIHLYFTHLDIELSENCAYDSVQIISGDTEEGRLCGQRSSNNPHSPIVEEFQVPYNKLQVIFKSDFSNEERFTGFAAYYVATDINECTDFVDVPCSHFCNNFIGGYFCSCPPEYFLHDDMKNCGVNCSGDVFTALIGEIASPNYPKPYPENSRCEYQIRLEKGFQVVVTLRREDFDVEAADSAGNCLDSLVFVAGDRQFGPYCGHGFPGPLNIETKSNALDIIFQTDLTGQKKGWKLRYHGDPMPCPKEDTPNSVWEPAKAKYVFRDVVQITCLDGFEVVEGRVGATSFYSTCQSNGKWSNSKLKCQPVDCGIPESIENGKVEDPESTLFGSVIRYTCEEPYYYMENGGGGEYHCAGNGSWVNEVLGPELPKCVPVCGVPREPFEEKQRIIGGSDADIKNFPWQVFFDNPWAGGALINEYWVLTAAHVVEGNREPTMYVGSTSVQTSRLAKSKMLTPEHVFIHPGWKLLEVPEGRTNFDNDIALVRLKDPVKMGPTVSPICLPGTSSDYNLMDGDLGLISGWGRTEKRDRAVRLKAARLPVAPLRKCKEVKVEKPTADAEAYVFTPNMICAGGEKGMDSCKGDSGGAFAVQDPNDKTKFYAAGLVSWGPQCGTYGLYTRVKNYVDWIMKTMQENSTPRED
T1 chain 2: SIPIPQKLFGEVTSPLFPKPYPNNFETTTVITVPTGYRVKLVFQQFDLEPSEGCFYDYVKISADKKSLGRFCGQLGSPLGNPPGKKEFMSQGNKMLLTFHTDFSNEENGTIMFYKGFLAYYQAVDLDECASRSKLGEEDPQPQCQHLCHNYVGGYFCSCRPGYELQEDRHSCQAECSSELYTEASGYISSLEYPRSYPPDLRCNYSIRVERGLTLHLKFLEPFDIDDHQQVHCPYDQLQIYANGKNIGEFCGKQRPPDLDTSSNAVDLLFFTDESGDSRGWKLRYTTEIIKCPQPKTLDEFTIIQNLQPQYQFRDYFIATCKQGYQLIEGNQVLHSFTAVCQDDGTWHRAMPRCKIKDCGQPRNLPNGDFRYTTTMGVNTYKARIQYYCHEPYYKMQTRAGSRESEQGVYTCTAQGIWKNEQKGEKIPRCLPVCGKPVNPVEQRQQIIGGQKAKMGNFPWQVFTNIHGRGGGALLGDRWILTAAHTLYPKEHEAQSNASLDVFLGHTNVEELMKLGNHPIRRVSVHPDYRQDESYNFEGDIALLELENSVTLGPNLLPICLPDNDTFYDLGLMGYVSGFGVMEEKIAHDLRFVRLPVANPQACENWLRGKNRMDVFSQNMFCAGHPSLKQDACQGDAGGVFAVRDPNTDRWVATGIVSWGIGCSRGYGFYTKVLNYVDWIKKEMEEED


Experiments:
[1] = molecular target: T1, recombinant human C1r2s2 tetramer; assay: SPR (Biacore), antibody captured on ProA/G, antigen as analyte, 37 C, pH5.8, 1.2 mM CaCl2; pH 5.8
Description: (§1) The kinetic parameters of anti-C1s antibodies against recombinant human C1s (as described in PCT/JP2018/042054), human C1r2s2, and cyno C1r2s2 His/Flag (also referred as cyno C1r2s2 in the Table and Figures) were assessed at pH7.4 and pH5.8, at 37 degrees C. using BIACORE (registered trademark) T200 instrument (GE Healthcare) or BIACORE 4000 (GE Healthcare). ProAG (Pierce) was immobilized onto a CM4 sensorchip using amine coupling kit (GE Healthcare) according to the recommended settings by GE Healthcare. Antibodies and analytes were diluted into the respective running buffers, ACES pH7.4 and pH5.8 (20 mM ACES, 150 mM NaCl, 1.2 mM CaCl₂, 1 mg/ml BSA, 1 mg/ml CMD, 0.05% Tween 20, 0.005 w/v % NaN₃). Each antibody was captured onto the sensor surface by ProA/G. Antibody capture levels were typically 100-200 resonance units (RU). Then, recombinant C1s was injected at concentrations of 25 and 50 nM followed by dissociation at pH7.4 and pH5.8. The surface was regenerated using 10 mM Glycine-HCl, pH1.5. Kinetic parameters at neutral pH conditions and acidic conditions were determined by fitting the sensorgrams with 1:1 binding model using BIACORE (registered trademark) T200 Evaluation software, version 2.0 (GE Healthcare) or BIACORE 4000 Evaluation software. The dissociation rate at pH5.8 (after dissociation at pH7.4, indicated as pH5.8* in TABLE 2) was determined by processing and fitting data using Scrubber 2.0 (BioLogic Software) curve fitting software. The association rate (ka), dissociation rate (kd), binding affinity (KD) at pH7.4 and pH5.8 condition, and dissociation rate (kd) at pH5.8* condition of the antibodies are listed in TABLE 2. Some kinetic parameters of COS0098pHv1 in acidic condition were not correctly calculated because of its weak binding response.
(§2) Also, to observe the cross-reactivity of anti-C1s antibodies against human C1r2s2 and cyno C1r2s2 (cyno C1r2s2 His/Flag), BIACORE (registered trademark) kinetics analysis was performed.

[2] = molecular target: T1, recombinant human C1r2s2 tetramer; assay: SPR (Biacore), antibody captured on ProA/G, antigen as analyte, 37 C, pH7.4, 1.2 mM CaCl2
Description: as §1, §2

Row | Binder | Kd [1] [nM] | koff [1] [s⁻¹] | kon [1] [M⁻¹ s⁻¹] | Kd [2] [nM] | koff [2] [s⁻¹] | kon [2] [M⁻¹ s⁻¹]
1 | COS0098bb (antibody, V domains shown, Anti-C1s rabbit antibody, parent of COS0098pHv1; the antibody was captured by ProA/G; also called anti-C1s antibody COS0098bb) VH: QSVEESGGRLVTPGTPLTLTCTVSGFSLTKYTVSWVRQAPGKGLEWIGIINTGGSAYYATWAKGRFTFSKTSTTVDLQITSPTTEDTATYFCARGNGDTDYTNLWGPGTLVTVSS VL: QVLTQTPSSVSEPVGGTVTINCQASENIYSALAWYQQKPGQPPKLLIYGASNLESGVPSRFKGSGSGTQFTLTISDLECADAATYYCQQYYFTSSTFGGGTKVEIK | 1.2 | 0.00103 | 858000 | – | – | –
2 | COS0098pHv1 (antibody, V domains shown, Humanized, optimized pH-dependent variant of COS0098bb) VH: QVQLVQSGAEVKKPGSSVKVSCKASGHTFSKYTVSWIRQPPGKGLEWIGIINTGGSAYPATWAKGRVTITADESTSTAYMELSSLRSEDTAVYYCARGAGDTDYTNLWGQGTLVTVSS VL: DIQMTQSPSSLSASVGDRVTITCQASENIYSALAWYQQKPGQPPKLLIYGASQLESGVPSRFSGSGSGTDFTLTISSLQPEDFATYYCQQYYFTSHTFGQGTKVEIK | – | – | – | 4 | 0.00206 | 514000
